Measured values reported in patent US20150368338A1 (Janssen / Centocor, published 2015).

T1: IFN-αF (human, UniProt P01568 24-189)
T1 construct: also called IFN-α21; alpha F
T1 chain: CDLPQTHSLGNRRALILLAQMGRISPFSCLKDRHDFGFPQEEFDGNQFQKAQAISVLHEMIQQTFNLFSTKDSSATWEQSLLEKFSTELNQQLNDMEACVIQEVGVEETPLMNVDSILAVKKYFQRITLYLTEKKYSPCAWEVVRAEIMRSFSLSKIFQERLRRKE


Assays:
Assay in all cases: ProteOn, one antigen concentration
IFN-α4a = biological target: T2, IFN-α4a (human, UniProt P05014 24-189)
T2 construct: also called IFN-αM1

IFN-αWA = biological target: T3, IFN-αWA (human, UniProt P05015 24-189)
T3 construct: also called IFN-α16; alpha WA

human IFN-ω = biological target: T4, human IFN-ω (human, UniProt P05000 24-195)
T4 construct: also called interferon omega

IFN-αJ1 = biological target: T5, IFN-αJ1 (human, UniProt P01567 24-189)
T5 construct: also called IFN-α7; alpha J1

IFN-αC = biological target: T6, IFN-αC (human, UniProt P01566 24-189)
T6 construct: also called IFN-α10; alpha C

IFN-αG = biological target: T7, IFN-αG (human, UniProt P01569 24-189)
T7 construct: also called IFN-α5; alpha G

IFN-αF = biological target: T1, IFN-αF

Row | Binder | Kd (IFN-α4a) [pM] | Kd (IFN-αWA) [pM] | Kd (human IFN-ω) [pM] | Kd (IFN-αJ1) [pM] | Kd (IFN-αC) [pM] | Kd (IFN-αG) [pM] | Kd (IFN-αF) [pM]
1 | IFWM3304 (antibody, V domains shown, VH IFWH591, VL IFWL997; converted mAb; also called IFWB3039) VH: EVQLVQSGAEVKKPGESLKISCKGSGYSFTSYWIGWVRQMPGKGLEWMGIIDPSDSDTRYSPSFQGQVTISADKSISTAYLQWSSLKASDTAMYYCARHPGLNWAPDFDYWGQGTLVTVSS VL: DIQMTQSPSSLSASVGDRVTITCRASQSIGSALNWYQQKPGKAPKLLIYFASSLQSGVPSRFSGSGSGTDFTLTISSLQPEDFATYYCQQSYDFPLTFGQGTKVEIK | 120 | 92 | 32 | 53 | 26 | 37 | 32
2 | IFWM3311 (antibody, V domains shown, VH IFWH591, VL IFWL1009; converted mAb; also called IFWB3046) VH: EVQLVQSGAEVKKPGESLKISCKGSGYSFTSYWIGWVRQMPGKGLEWMGIIDPSDSDTRYSPSFQGQVTISADKSISTAYLQWSSLKASDTAMYYCARHPGLNWAPDFDYWGQGTLVTVSS VL: DIQMTQSPSSLSASVGDRVTITCRASQSIDDFLNWYQQKPGKAPKLLIYFASSLQSGVPSRFSGSGSGTDFTLTISSLQPEDFATYYCQQSHTLPLTFGQGTKVEIK | 223 | 72 | 12 | 56 | 36 | 56 | 21
3 | IFWM3305 (antibody, V domains shown, VH IFWH591, VL IFWL998; converted mAb; also called IFWB3040) VH: EVQLVQSGAEVKKPGESLKISCKGSGYSFTSYWIGWVRQMPGKGLEWMGIIDPSDSDTRYSPSFQGQVTISADKSISTAYLQWSSLKASDTAMYYCARHPGLNWAPDFDYWGQGTLVTVSS VL: DIQMTQSPSSLSASVGDRVTITCRASQSISKFLNWYQQKPGKAPKLLIYFASSLQSGVPSRFSGSGSGTDFTLTISSLQPEDFATYYCQQSNTLPFTFGQGTKVEIK | 223 | 201 | 31 | 154 | 114 | 127 | 113
4 | IFWM3309 (antibody, V domains shown, VH IFWH591, VL IFWL1006; converted mAb; also called IFWB3044) VH: EVQLVQSGAEVKKPGESLKISCKGSGYSFTSYWIGWVRQMPGKGLEWMGIIDPSDSDTRYSPSFQGQVTISADKSISTAYLQWSSLKASDTAMYYCARHPGLNWAPDFDYWGQGTLVTVSS VL: DIQMTQSPSSLSASVGDRVTITCRASQSIGGFLNWYQQKPGKAPKLLIYFASSLQSGVPSRFSGSGSGTDFTLTISSLQPEDFATYYCQQSYSLPITFGQGTKVEIK | 383 | 139 | 55 | 275 | 109 | 120 | 140
5 | IFWM3308 (antibody, V domains shown, VH IFWH591, VL IFWL1004; converted mAb; also called IFWB3043) VH: EVQLVQSGAEVKKPGESLKISCKGSGYSFTSYWIGWVRQMPGKGLEWMGIIDPSDSDTRYSPSFQGQVTISADKSISTAYLQWSSLKASDTAMYYCARHPGLNWAPDFDYWGQGTLVTVSS VL: DIQMTQSPSSLSASVGDRVTITCRASQSIAEFLNWYQQKPGKAPKLLIYFASSLQSGVPSRFSGSGSGTDFTLTISSLQPEDFATYYCQQSIDFPLTFGQGTKVEIK | 246 | 99 | 38 | 203 | 52 | 45 | 53
6 | IFWM3306 (antibody, V domains shown, VH IFWH591, VL IFWL1000; converted mAb; also called IFWB3041) VH: EVQLVQSGAEVKKPGESLKISCKGSGYSFTSYWIGWVRQMPGKGLEWMGIIDPSDSDTRYSPSFQGQVTISADKSISTAYLQWSSLKASDTAMYYCARHPGLNWAPDFDYWGQGTLVTVSS VL: DIQMTQSPSSLSASVGDRVTITCRASQSITNFLNWYQQKPGKAPKLLIYFASSLQSGVPSRFSGSGSGTDFTLTISSLQPEDFATYYCQQSLDFPLTFGQGTKVEIK | 147 | 70 | 20 | 86 | 27 | 29 | 25
7 | IFWM3310 (antibody, V domains shown, VH IFWH591, VL IFWL1007; converted mAb; also called IFWB3045) VH: EVQLVQSGAEVKKPGESLKISCKGSGYSFTSYWIGWVRQMPGKGLEWMGIIDPSDSDTRYSPSFQGQVTISADKSISTAYLQWSSLKASDTAMYYCARHPGLNWAPDFDYWGQGTLVTVSS VL: DIQMTQSPSSLSASVGDRVTITCRASQSIGKSLNWYQQKPGKAPKLLIYFASSLQSGVPSRFSGSGSGTDFTLTISSLQPEDFATYYCQQSYDFPLTFGQGTKVEIK | 177 | 91 | 65 | 101 | 57 | 54 | 40

Now from value to binder:

Row | Kd (IFN-α4a) [pM] | Kd (IFN-αWA) [pM] | Kd (human IFN-ω) [pM] | Kd (IFN-αJ1) [pM] | Kd (IFN-αC) [pM] | Kd (IFN-αG) [pM] | Kd (IFN-αF) [pM] | Binder
8 | 370 | 162 | 16 | 206 | 133 | 126 | 121 | IFWM3317 (antibody, V domains shown, VH IFWH591, VL IFWL1026; converted mAb; also called IFWB3052) VH: EVQLVQSGAEVKKPGESLKISCKGSGYSFTSYWIGWVRQMPGKGLEWMGIIDPSDSDTRYSPSFQGQVTISADKSISTAYLQWSSLKASDTAMYYCARHPGLNWAPDFDYWGQGTLVTVSS VL: DIQMTQSPSSLSASVGDRVTITCRASQSISKFLNWYQQKPGKAPKLLIYFASSLQSGVPSRFSGSGSGTDFTLTISSLQPEDFATYYCQQSYDFPITFGQGTKVEIK
9 | 252 | 91 | 18 | 119 | 30 | 40 | 34 | IFWM3318 (antibody, V domains shown, VH IFWH591, VL IFWL1038; converted mAb; also called IFWB3053) VH: EVQLVQSGAEVKKPGESLKISCKGSGYSFTSYWIGWVRQMPGKGLEWMGIIDPSDSDTRYSPSFQGQVTISADKSISTAYLQWSSLKASDTAMYYCARHPGLNWAPDFDYWGQGTLVTVSS VL: DIQMTQSPSSLSASVGDRVTITCRASQSISEYLNWYQQKPGKAPKLLIYFASSLQSGVPSRFSGSGSGTDFTLTISSLQPEDFATYYCQQSHSLPITFGQGTKVEIK
10 | 92 | 42 | 20 | 39 | 26 | 28 | 21 | IFWM3314 (antibody, V domains shown, VH IFWH591, VL IFWL1014; converted mAb; also called IFWB3049) VH: EVQLVQSGAEVKKPGESLKISCKGSGYSFTSYWIGWVRQMPGKGLEWMGIIDPSDSDTRYSPSFQGQVTISADKSISTAYLQWSSLKASDTAMYYCARHPGLNWAPDFDYWGQGTLVTVSS VL: DIQMTQSPSSLSASVGDRVTITCRASQSIDRALNWYQQKPGKAPKLLIYFASSLQSGVPSRFSGSGSGTDFTLTISSLQPEDFATYYCQQSFDFPLTFGQGTKVEIK
11 | 240 | 115 | 63 | 134 | 59 | 61 | 50 | IFWM3315 (antibody, V domains shown, VH IFWH591, VL IFWL1017; converted mAb; also called IFWB3050) VH: EVQLVQSGAEVKKPGESLKISCKGSGYSFTSYWIGWVRQMPGKGLEWMGIIDPSDSDTRYSPSFQGQVTISADKSISTAYLQWSSLKASDTAMYYCARHPGLNWAPDFDYWGQGTLVTVSS VL: DIQMTQSPSSLSASVGDRVTITCRASQSITSSLNWYQQKPGKAPKLLIYFASSLQSGVPSRFSGSGSGTDFTLTISSLQPEDFATYYCQQSFDLPLTFGQGTKVEIK
12 | 168 | 73 | 42 | 70 | 42 | 87 | 33 | IFWM3316 (antibody, V domains shown, VH IFWH591, VL IFWL1022; converted mAb; also called IFWB3051) VH: EVQLVQSGAEVKKPGESLKISCKGSGYSFTSYWIGWVRQMPGKGLEWMGIIDPSDSDTRYSPSFQGQVTISADKSISTAYLQWSSLKASDTAMYYCARHPGLNWAPDFDYWGQGTLVTVSS VL: DIQMTQSPSSLSASVGDRVTITCRASQSINEFLNWYQQKPGKAPKLLIYFASSLQSGVPSRFSGSGSGTDFTLTISSLQPEDFATYYCQQSYSTPLTFGQGTKVEIK
